Assay results: patent US20240368263A1 (PROMETHEUS BIOSCIENCES, published 2024)
Changes are numbered by the printed parent chain. Like-named read-outs stand apart in the source and are kept apart here.

Assays:
[1] = molecular target: T1, human TL1A (endogenous, human whole blood assay) (human, UniProt O95150 1-251, limits assumed); experiment: cell-based or functional assay
T1 sequence (looked up): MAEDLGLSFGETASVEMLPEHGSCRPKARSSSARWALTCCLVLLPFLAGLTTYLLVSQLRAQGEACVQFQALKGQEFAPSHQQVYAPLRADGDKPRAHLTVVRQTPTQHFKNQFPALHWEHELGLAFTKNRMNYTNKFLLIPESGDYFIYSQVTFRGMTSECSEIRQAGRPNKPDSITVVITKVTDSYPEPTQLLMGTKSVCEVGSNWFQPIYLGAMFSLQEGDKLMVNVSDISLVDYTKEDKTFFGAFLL

[2] = molecular target: T1, human TL1A (endogenous, human whole …); experiment: cell-based or functional assay; remark: listed apart in the source
[3] = molecular target: T2, cynomolgus TL1A (endogenous, cynomolgus whole blood) (cynomolgus monkey, UniProt G7PRK8 1-251); experiment: cell-based or functional assay
T2 sequence: T1 sequence (looked up) with R34C, L47V, F69L, A71D, F110L, I149V

[4] = molecular target: T1, human TL1A (endogenous, human whole …); experiment: cell-based or functional assay; remark: listed apart in the source
[5] = molecular target: T3, human TL1A (Fitzgerald, Prod. #30R-AT070) (human, UniProt O95150 72-251, limits assumed, biotinylated with EZ-Link Sulfo-NHS-LC-Biotin where used as soluble antigen); experiment: capture lift hit at 200 pM b-TL1A, unmutated sequence
T3 construct: also called TNFSF15; biotinylated human TL1A
T3 sequence (looked up): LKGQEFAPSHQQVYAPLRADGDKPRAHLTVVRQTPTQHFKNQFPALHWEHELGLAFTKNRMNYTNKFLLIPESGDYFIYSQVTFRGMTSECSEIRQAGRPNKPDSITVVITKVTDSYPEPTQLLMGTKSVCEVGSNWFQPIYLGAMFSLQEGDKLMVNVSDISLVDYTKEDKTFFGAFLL

[6] = molecular target: T4, membrane-associated human TL1A on transfected HEK293 cells (human, UniProt O95150 1-251); experiment: flow cytometry, HEK293 cells transfected with human TL1A
T4 construct: whole, on cells
T4 sequence (looked up): T1 sequence (looked up)
Method: All the Fab variants were tested for binding to membrane-associated human TL1A. For these studies a HEK293 cell line that had been transfected with human TL1A was used. The 293 cells expressing membrane bound human TL1A were maintained in DMEM containing L-glutamine, glucose, sodium pyruvate, and phenol red (ThermoFisher cat #11995-065) plus 10% fetal bovine serum, 1X penicillin-streptomycin (Fisher cat #15140122) and 2 μg/ml puromycin (Gibco cat #A11138-03) in a 37° C. incubator with 5% CO2. Three days prior to the assay, a T-75 flask was seeded with 3×10⁶ cells so that the flask was 90-95% confluent on the day of the assay. The media was aspirated and the cell monolayer was gently washed with 5 ml PBS. Adherent cells were removed by repeatedly pipetting 10 ml ice cold 1% BSA/PBS against the monolayer. The cells were counted and 5×10⁵ were aliquoted for each sample to be analyzed. The cells were collected by centrifuging at 300× g at 4° C. for 5 minutes and the wash was discarded. The cells were resuspended in 100 μl Fab or IgG diluted in 1% BSA/PBS and placed on ice for 30 min. Next, the cells were washed with 1 ml 1% BSA/PBS and collected by centrifuging at 300× g at 4° C. for 5 min. The wash was discarded and 100 μl secondary goat F (ab′) 2 anti-human kappa FITC (Southern Biotech cat #2062-02) or goat F (ab′) 2 anti-human IgG PE (Southern Biotech cat #2043-09) conjugate, diluted 1:200 in BSA/PBS was added. Cells were placed on ice for 30 min. Finally, the cells were washed with 1 ml BSA/PBS, collected by centrifuging at 300× g at 4° C. for 5 min. The wash was removed and the cells were resuspended in 500 μl 1% BSA/PBS. One drop of Sytox AADvanced ReadyFlow Reagent (ThermoFisher cat #R37173) was added per sample and the samples were analyzed on the Attune NXT Flow Cytometer (ThermoFisher).

[7] = molecular target: T3, human TL1A (Fitzgerald, Prod. …); experiment: capture lift hit at 15 pM b-TL1A, unmutated sequence
[8] = molecular target: LIGHT/TNFSF14 (R&D Systems, cat. no. 664-LI/CF) (UniProt O43557 74-240); experiment: ELISA, antigen coated at 1 µg/ml, Fab titrated
Method: (§1) Next, all the Fab variants were characterized for their selectivity for human TL1A relative to other TNFSF members TRAIL, LIGHT and Fas. […] The plate was washed 3 times with PBS-T and blocked with 100 μl of 1% BSA/PBS. The block was discarded and the Fab variants or control antibodies (Fas/TNFSF6, R&D Systems, cat. no. AF126; TRAIL/TNFSF10, R&D Systems, cat. no. AF375; LIGHT/TNFSF14, R&D Systems, cat. no. AF664) were titrated in 50 μl 1% BSA/PBS and incubated for 1 h at 25° C. The plate was washed 3 times with PBS-T and secondary HRP-conjugated antibody (diluted 5,000-fold in 1% BSA/PBS) was added for 1 h at 25° C. The plate was washed 3 times with PBS-T and developed.

[9] = molecular target: TRAIL/TNFSF10 (R&D Systems, cat. no. 375-TL/CF) (UniProt P50591 114-281); experiment: ELISA, antigen coated at 1 µg/ml, Fab titrated
Method: as §1

[10] = molecular target: T5, Fas/TNFSF6 (R&D Systems, cat. no. 126-FL/CF) (UniProt P48023 134-281); experiment: ELISA, antigen coated at 1 µg/ml, Fab titrated
T5 sequence (looked up): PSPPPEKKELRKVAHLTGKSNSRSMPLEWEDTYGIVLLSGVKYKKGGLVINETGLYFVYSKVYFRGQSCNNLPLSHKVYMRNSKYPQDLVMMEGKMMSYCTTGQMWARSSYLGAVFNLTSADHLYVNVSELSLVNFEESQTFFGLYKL
Method: as §1

Chain of TRAIL/TNFSF10 (R&D Systems, cat. no. 375-TL/CF) (P50591 114-281 limits assumed): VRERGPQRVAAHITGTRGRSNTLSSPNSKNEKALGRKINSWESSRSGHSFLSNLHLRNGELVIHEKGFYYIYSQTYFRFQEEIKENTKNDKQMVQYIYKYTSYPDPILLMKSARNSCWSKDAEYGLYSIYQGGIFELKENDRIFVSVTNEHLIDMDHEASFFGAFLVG
Chain of LIGHT/TNFSF14 (R&D Systems, cat. no. 664-LI/CF) (O43557 74-240 limits assumed): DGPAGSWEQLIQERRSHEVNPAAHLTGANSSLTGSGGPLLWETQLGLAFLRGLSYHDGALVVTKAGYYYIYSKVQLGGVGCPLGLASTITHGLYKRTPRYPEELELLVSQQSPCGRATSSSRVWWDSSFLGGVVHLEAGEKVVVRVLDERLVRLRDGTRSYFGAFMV

B1: clone 23, modified IgG1 / kappa (antibody)
heavy: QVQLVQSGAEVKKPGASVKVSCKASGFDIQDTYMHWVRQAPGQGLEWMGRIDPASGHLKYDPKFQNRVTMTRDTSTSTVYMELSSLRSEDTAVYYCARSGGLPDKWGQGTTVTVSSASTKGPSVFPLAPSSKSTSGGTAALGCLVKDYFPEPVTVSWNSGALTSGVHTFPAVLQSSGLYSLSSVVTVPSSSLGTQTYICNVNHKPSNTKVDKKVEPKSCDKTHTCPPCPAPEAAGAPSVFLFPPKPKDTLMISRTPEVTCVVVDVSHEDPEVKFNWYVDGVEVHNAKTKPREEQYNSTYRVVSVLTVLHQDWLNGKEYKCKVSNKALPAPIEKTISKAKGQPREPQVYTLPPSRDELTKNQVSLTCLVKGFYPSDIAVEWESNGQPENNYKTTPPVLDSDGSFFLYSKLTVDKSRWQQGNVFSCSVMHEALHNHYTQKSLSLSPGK
light: EIVLTQSPGTLSLSPGERATLSCRASSSVSYMYWYQQKPGQAPRLLIYATSNLASGIPDRFSGSGSGTDFTLTISRLEPEDFAVYYCQQWEGNPRTFGGGTKLEIKRTVAAPSVFIFPPSDEQLKSGTASVVCLLNNFYPREAKVQWKVDNALQSGNSQESVTEQDSKDSTYSLSSTLTLSKADYEKHKVYACEVTHQGLSSPVTKSFNRGEC
IC50, inhibition of IFN-γ production, human whole blood assay [1]: 0.41 nM | Potency (IC50, nM), human whole blood assay, mean [2]: 0.64 nM | Potency (IC50, nM), cynomolgus whole blood assay, mean [3]: 0.72 nM

B2: clone 14, modified IgG1 / kappa (antibody)
heavy: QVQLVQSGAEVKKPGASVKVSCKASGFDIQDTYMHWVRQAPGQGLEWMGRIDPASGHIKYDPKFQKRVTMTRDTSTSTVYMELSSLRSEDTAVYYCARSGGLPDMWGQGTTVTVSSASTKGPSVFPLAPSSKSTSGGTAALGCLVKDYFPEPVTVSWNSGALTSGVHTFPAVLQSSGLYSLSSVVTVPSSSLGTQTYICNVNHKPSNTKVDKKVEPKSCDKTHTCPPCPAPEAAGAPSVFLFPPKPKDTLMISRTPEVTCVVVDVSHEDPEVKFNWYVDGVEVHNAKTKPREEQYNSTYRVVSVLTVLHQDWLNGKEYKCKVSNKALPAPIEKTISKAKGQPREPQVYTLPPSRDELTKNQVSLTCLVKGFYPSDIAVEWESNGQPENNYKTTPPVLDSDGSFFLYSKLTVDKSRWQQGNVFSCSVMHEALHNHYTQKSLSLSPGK
light: B1 light with E91Q
IC50, inhibition of IFN-γ production, human whole blood assay [1]: 0.19 nM | Potency (IC50, nM), human whole blood assay, mean [2]: 0.3 nM | Potency (IC50, nM), cynomolgus whole blood assay, mean [3]: 0.28 nM

B3: clone 34, modified IgG1 / kappa (antibody)
heavy: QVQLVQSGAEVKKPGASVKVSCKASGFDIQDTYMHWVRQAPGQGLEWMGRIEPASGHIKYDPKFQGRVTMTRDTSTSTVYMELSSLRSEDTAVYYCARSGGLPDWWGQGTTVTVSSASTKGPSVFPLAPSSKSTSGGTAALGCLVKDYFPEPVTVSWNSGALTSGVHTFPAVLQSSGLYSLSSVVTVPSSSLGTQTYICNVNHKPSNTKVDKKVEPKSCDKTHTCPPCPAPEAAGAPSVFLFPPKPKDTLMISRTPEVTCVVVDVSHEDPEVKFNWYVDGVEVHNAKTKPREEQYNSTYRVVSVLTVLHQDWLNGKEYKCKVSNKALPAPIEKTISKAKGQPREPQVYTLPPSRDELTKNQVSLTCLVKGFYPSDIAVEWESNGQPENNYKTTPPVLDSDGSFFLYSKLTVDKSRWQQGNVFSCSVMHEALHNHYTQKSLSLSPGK
light: B1 light
IC50, inhibition of IFN-γ production, human whole blood assay [1]: 0.18 nM | Potency (IC50, nM), human whole blood assay, mean [2]: 0.24 nM | Potency (IC50, nM), cynomolgus whole blood assay, mean [3]: 0.21 nM

B4: clone 53, modified IgG1 / kappa (antibody, V domains shown)
VH: QVQLVQSGAEVKKPGASVKVSCKASGFDIQDTYMHWVRQAPGQGLEWMGRIEPASGHLKYDPKFQERVTMTRDTSTSTVYMELSSLRSEDTAVYYCARSGGLPDKWGQGTTVTVSS
VL: EIVLTQSPGTLSLSPGERATLSCRASSSVSYMYWYQQKPGQAPRLLIYATSNLASGIPDRFSGSGSGTDFTLTISRLEPEDFAVYYCQQWEGNPRTFGGGTKLEIKR
fold greater potency towards human TL1A than cynomolgus TL1A, whole blood assays [4]: ~2 fold | IC50, inhibition of IFN-γ production, human whole blood assay [1]: 0.39 nM | Potency (IC50, nM), human whole blood assay, mean [2]: 0.59 nM | Potency (IC50, nM), cynomolgus whole blood assay, mean [3]: 1.32 nM

B5: murine 5C3D11 monoclonal antibody (antibody, V domains shown)
VH: EVQLQQSGAELVKPGASVKLSCTASGFDIQDTYMHWVKQRPEQGLEWIGRIDPASGHTKYDPKFQVKATITTDTSSNTAYLQLSSLTSEDTAVYYCSRSGGLPDVWGAGTTVTVSS
VL: QIVLSQSPAILSASPGEKVTMTCRASSSVSYMYWYQQKPGSSPKPWIYATSNLASGVPDRFSGSGSGTSYSLTISRVEAEDAATYYCQQWSGNPRTFGGGTKLEIK
IC50, inhibition of IFN-γ production, human whole blood assay [4]: 1.38 nM | Potency (IC50, nM), cynomolgus whole blood assay, mean [3]: 0.18 nM

B6: L8 (CDR graft) Fab (Fab, V domains shown)
VH: B4 VH with E52D, L58T, E66V, K105V
VL: EIVLTQSPGTLSLSPGERATLSCRASSSVSYMYWYQQKPGQAPRLLIYATSNLASGIPDRFSGSGSGTDFTLTISRLEPEDFAVYYCQQWSGNPRTFGGGTKLEIK
notes: Fab; also called CDR graft clone L8; CDR-grafted variant
binding result [5]: binds

B7: 12835 (humanized 5C3D11) antibody, IgG format (antibody, V domains shown)
VH: B4 VH with V20L, E52D, L58T, E66V, R72T, A97S, K105V
VL: B6 VL with A19V, L21M, L45P, L46W, I57V, F70Y
IC50, inhibition of IFN-γ production, human whole blood assay [4]: 9.28 nM

B8: 1D1 anti-TL1A antibody (antibody, V domains shown)
VH: QVQLVQSGAEVKKPGASVKVSCKASGYDFTYYGISWVRQAPGQGLEWMGWISTYNGNTHYARMLQGRVTMTTDTSTRTAYMELRSLRSDDTAVYYCARENYYGSGAYRGGMDVWGQGTTVTVSS
VL: EIVLTQSPATLSLSPGERATLSCRASQSVSSYLAWYQQKPGQAPRLLIYDASNRATGIPARFSGSGSGTDFTLTISSLEPEDFAVYYCQQRSNWPWTFGQGTKVEIK
Potency (IC50, nM), human whole blood assay, mean [2]: 0.27 nM

B9: Clone L8mod Fab (Fab, V domains shown)
VH: QVQLVQSGAEVKKPGASVKVSCKASGFDIQDTYMHWVRQAPGQGLEWMGRIDPASGHTKYDPKFQGRATITTDTSASTAYLQLSSLRSEDTAVYYCARSGGLPDVWGQGTTVTVSS
VL: B6 VL
notes: Fab
binding result [6]: binds | binding result [7]: binds | binding result [8]: no binding | binding result [9]: no binding | binding result [10]: no binding
